Patent publication US20260232827A1 (Zymeworks, published 2026)

Assays:
human NaPi2c = target: T1, human NaPi2c (human, UniProt Q8N130 1-599); experiment: flow cytometry on HEK293-6e cells transfected with human NaPi2c, 24 h at 4 C, anti-human IgG Fc AF647
T1 construct: whole, on cells; also called Hu NaPi2c; SLC34A3
T1 sequence (looked up): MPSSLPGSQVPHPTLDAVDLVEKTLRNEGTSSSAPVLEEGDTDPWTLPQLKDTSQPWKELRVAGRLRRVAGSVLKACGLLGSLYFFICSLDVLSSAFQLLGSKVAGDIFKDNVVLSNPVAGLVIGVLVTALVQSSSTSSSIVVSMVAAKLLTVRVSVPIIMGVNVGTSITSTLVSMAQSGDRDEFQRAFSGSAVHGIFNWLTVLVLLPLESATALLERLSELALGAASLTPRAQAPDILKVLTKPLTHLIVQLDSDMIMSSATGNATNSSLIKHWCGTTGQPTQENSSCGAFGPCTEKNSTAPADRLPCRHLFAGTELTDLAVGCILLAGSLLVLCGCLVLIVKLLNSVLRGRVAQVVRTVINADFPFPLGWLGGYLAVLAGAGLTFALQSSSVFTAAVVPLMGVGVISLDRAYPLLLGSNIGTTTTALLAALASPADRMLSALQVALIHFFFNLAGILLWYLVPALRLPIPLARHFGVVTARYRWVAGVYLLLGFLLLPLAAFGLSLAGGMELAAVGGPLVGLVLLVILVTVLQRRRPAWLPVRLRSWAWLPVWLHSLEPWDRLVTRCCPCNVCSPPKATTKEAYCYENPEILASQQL

[1] = target: T2, Construct 4 (chimeric human NaPi2b, swap in NaPi2c in 341-358) (human); experiment: flow cytometry, transfected HEK293-6e cells, antibody 20 nM
T2 construct: also called CL_#13435

[2] = target: T3, Construct 3 (chimeric human NaPi2b, swap in NaPi2c in 304-321) (human); experiment: as above
T3 construct: also called CL_#29916

[3] = target: T4, Construct 7 (human NaPi2b del 317-326) (human, UniProt O95436 1-690); experiment: as above
T4 construct: also called CL_#29921
T4 sequence: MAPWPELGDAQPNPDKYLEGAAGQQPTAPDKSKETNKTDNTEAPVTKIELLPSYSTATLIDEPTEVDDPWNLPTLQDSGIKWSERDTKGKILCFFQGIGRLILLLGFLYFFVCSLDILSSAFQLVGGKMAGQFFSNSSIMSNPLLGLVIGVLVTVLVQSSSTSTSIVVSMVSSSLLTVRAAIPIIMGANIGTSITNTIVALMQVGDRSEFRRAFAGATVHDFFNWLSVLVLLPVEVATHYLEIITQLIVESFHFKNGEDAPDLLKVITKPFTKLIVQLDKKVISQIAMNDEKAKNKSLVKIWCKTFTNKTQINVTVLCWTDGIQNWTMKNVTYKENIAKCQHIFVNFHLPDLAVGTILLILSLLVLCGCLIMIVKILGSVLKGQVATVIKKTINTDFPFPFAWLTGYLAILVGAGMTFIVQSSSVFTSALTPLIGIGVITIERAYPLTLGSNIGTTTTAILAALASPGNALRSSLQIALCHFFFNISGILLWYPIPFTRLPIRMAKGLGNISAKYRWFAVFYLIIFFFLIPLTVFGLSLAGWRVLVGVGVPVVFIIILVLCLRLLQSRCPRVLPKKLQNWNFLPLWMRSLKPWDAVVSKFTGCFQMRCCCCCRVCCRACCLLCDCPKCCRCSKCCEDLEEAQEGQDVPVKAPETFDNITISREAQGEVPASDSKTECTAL

[4] = target: T5, Full length human NaPi2b (sodium-dependent phosphate transporter 2B, SLC34A2) (human, UniProt O95436 1-690); experiment: as above
T5 construct: also called huNaPi2b; CL_#13432
T5 sequence: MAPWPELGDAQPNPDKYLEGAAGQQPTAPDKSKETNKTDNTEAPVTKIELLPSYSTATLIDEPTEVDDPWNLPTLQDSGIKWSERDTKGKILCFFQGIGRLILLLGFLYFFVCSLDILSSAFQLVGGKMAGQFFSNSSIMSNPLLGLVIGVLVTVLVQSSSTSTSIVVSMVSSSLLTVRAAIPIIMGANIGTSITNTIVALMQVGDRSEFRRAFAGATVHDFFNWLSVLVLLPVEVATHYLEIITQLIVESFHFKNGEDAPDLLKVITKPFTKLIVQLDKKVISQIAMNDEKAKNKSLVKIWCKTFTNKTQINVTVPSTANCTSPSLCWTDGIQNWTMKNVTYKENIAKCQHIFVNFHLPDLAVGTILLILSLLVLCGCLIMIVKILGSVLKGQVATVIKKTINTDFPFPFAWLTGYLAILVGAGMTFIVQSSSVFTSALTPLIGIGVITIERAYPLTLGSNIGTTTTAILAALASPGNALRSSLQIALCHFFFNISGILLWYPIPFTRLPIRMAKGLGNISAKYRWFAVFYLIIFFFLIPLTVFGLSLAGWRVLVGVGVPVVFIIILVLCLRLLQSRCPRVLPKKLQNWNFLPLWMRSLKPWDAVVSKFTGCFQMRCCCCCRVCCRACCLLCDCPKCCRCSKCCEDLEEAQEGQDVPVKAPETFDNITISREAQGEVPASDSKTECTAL

[5] = target: T6, Construct 1 (chimeric human NaPi2b, swap in NaPi2c in 239-259) (human); experiment: as above
T6 construct: also called CL_#29914

[6] = target: T7, Construct 5 (chimeric human NaPi2b, swap in NaPi2a in 304-348) (human); experiment: as above
T7 construct: also called CL_#13436

B1: v38591 (humanized anti-NaPi2b antibody, wild-type Fc) (antibody, human IgG1, kappa)
heavy: not shown
light: DVQMTQSPSSLSASVGDRVTITCRASQDVYSYLNWYQQKPGKAVKLLIYYTSRLQSGVPSRFSGSGSGTDYTLTISSLQPEDFATYYCQQYNIFPWTFGQGTKLEIKRTVAAPSVFIFPPSDEQLKSGTASVVCLLNNFYPREAKVQWKVDNALQSGNSQESVTEQDSKDSTYSLSSTLTLSKADYEKHKVYACEVTHQGLSSPVTKSFNRGEC
notes: also called v38591 Wild-type; H1L2
**Q.** Does B1 bind (human NaPi2c)?
**A.** Result: no binding (tested: 200 nM)

B2: v38591 (humanized anti-NaPi2b antibody, H1L2, wild-type Fc, heavy chains with C-terminal lysine) (antibody, human IgG1, kappa)
heavy: not shown
light: DVQMTQSPSSLSASVGDRVTITCRASQDVYSYLNWYQQKPGKAVKLLIYYTSRLQSGVPSRFSGSGSGTDYTLTISSLQPEDFATYYCQQYNIFPWTFGQGTKLEIKRTVAAPSVFIFPPSDEQLKSGTASVVCLLNNFYPREAKVQWKVDNALQSGNSQESVTEQDSKDSTYSLSSTLTLSKADYEKHKVYACEVTHQGLSSPVTKSFNRGEC
notes: Full-size human IgG1/kappa antibody; also called v38591 (wild-type Fc)
**Q.** How did the “Background-Subtracted AF647 Mean Fluorescence Intensity” value [1] turn out when B2 was run?
**A.** Its value is 993 MFI.

**Q.** And the “Background-Subtracted AF647 Mean Fluorescence Intensity” value [2]?
**A.** The value was 1120 MFI.

**Q.** And the “Background-Subtracted AF647 Mean Fluorescence Intensity” value [3]?
**A.** Its value is 981 MFI.

**Q.** What about the “Background-Subtracted AF647 Mean Fluorescence Intensity” value [4] of the same binder?
**A.** The value was 1420 MFI.

**Q.** And the “Background-Subtracted AF647 Mean Fluorescence Intensity” value [5]?
**A.** The value was 1860 MFI.

B3: v18992 (MX35), reference anti-NaPi2b antibody (antibody, human IgG1, kappa)
heavy 1: GQVQLVQSGAEVVKPGASVKMSCKASGYTFTGYNIHWVKQAPGQGLEWIGAIYPGNGDTSYKQKFRGRATLTADTSTSTVYMELSSLRSEDSAVYYCARGETARATFAYWGQGTLVTVSSASTKGPSVFPLAPSSKSTSGGTAALGCLVKDYFPEPVTVSWNSGALTSGVHTFPAVLQSSGLYSLSSVVTVPSSSLGTQTYICNVNHKPSNTKVDKKVEPKSCDKTHTCPPCPAPELLGGPSVFLFPPKPKDTLMISRTPEVTCVVVDVSHEDPEVKFNWYVDGVEVHNAKTKPREEQYNSTYRVVSVLTVLHQDWLNGKEYKCKVSNKALPAPIEKTISKAKGQPREPQVYVYPPSRDELTKNQVSLTCLVKGFYPSDIAVEWESNGQPENNYKTTPPVLDSDGSFALVSKLTVDKSRWQQGNVFSCSVMHEALHNHYTQKSLSLSPG
heavy 2: not shown
light: GDIQMTQSPSSLSASVGDRVTITCSASQDIGNFLNWYQQKPGKTVKVLIYYTSSLYSGVPSRFSGSGSGTDYTLTISSLQPEDFATYYCQQYSKLPLTFGQGTKLELKRTVAAPSVFIFPPSDEQLKSGTASVVCLLNNFYPREAKVQWKVDNALQSGNSQESVTEQDSKDSTYSLSSTLTLSKADYEKHKVYACEVTHQGLSSPVTKSFNRGEC
**Q.** Does B3 bind (human NaPi2c)?
**A.** Result: no binding (tested: 200 nM)

B4: MX35 (v18992), reference anti-NaPi2b antibody (antibody, human IgG1, kappa)
heavy 1: GQVQLVQSGAEVVKPGASVKMSCKASGYTFTGYNIHWVKQAPGQGLEWIGAIYPGNGDTSYKQKFRGRATLTADTSTSTVYMELSSLRSEDSAVYYCARGETARATFAYWGQGTLVTVSSASTKGPSVFPLAPSSKSTSGGTAALGCLVKDYFPEPVTVSWNSGALTSGVHTFPAVLQSSGLYSLSSVVTVPSSSLGTQTYICNVNHKPSNTKVDKKVEPKSCDKTHTCPPCPAPELLGGPSVFLFPPKPKDTLMISRTPEVTCVVVDVSHEDPEVKFNWYVDGVEVHNAKTKPREEQYNSTYRVVSVLTVLHQDWLNGKEYKCKVSNKALPAPIEKTISKAKGQPREPQVYVYPPSRDELTKNQVSLTCLVKGFYPSDIAVEWESNGQPENNYKTTPPVLDSDGSFALVSKLTVDKSRWQQGNVFSCSVMHEALHNHYTQKSLSLSPG
heavy 2: not shown
light: GDIQMTQSPSSLSASVGDRVTITCSASQDIGNFLNWYQQKPGKTVKVLIYYTSSLYSGVPSRFSGSGSGTDYTLTISSLQPEDFATYYCQQYSKLPLTFGQGTKLELKRTVAAPSVFIFPPSDEQLKSGTASVVCLLNNFYPREAKVQWKVDNALQSGNSQESVTEQDSKDSTYSLSSTLTLSKADYEKHKVYACEVTHQGLSSPVTKSFNRGEC
**Q.** What does the source list for B4?
**A.** Background-Subtracted AF647 Mean Fluorescence Intensity [1]: 979 MFI; Background-Subtracted AF647 Mean Fluorescence Intensity [2]: 930 MFI; Background-Subtracted AF647 Mean Fluorescence Intensity [3]: 233 MFI; Background-Subtracted AF647 Mean Fluorescence Intensity [4]: 1250 MFI; Background-Subtracted AF647 Mean Fluorescence Intensity [6]: 79 MFI; Background-Subtracted AF647 Mean Fluorescence Intensity [5]: 1820 MFI

B5: v22277 (palivizumab, anti-RSV negative control, heterodimeric Fc) (antibody, human IgG1, kappa)
heavy 1: GQVTLRESGPALVKPTQTLTLTCTFSGFSLSTSGMSVGWIRQPPGKALEWLADIWWDDKKDYNPSLKSRLTISKDTSKNQVVLKVTNMDPADTATYYCARSMITNWYFDVWGAGTTVTVSSASTKGPSVFPLAPSSKSTSGGTAALGCLVKDYFPEPVTVSWNSGALTSGVHTFPAVLQSSGLYSLSSVVTVPSSSLGTQTYICNVNHKPSNTKVDKKVEPKSCDKTHTCPPCPAPELLGGPSVFLFPPKPKDTLMISRTPEVTCVVVDVSHEDPEVKFNWYVDGVEVHNAKTKPREEQYNSTYRVVSVLTVLHQDWLNGKEYKCKVSNKALPAPIEKTISKAKGQPREPQVYVYPPSRDELTKNQVSLTCLVKGFYPSDIAVEWESNGQPENNYKTTPPVLDSDGSFALVSKLTVDKSRWQQGNVFSCSVMHEALHNHYTQKSLSLSPG
heavy 2: not shown
light: GDIQMTQSPSTLSASVGDRVTITCKSQLSVGYMHWYQQKPGKAPKLLIYDTSKLASGVPSRFSGSGSGTEFTLTISSLQPDDFATYYCFQGSGYPFTFGGGTKLEIKRTVAAPSVFIFPPSDEQLKSGTASVVCLLNNFYPREAKVQWKVDNALQSGNSQESVTEQDSKDSTYSLSSTLTLSKADYEKHKVYACEVTHQGLSSPVTKSFNRGEC
notes: also called neg control
**Q.** Does B5 bind (human NaPi2c)?
**A.** Result: no binding (tested: 200 nM)

B6: v18993 (lifastuzumab), reference anti-NaPi2b antibody (antibody, human IgG1, kappa)
heavy 1: GEVQLVESGGGLVQPGGSLRLSCAASGFSFSDFAMSWVRQAPGKGLEWVATIGRVAFHTYYPDSMKGRFTISRDNSKNTLYLQMNSLRAEDTAVYYCARHRGFDVGHFDFWGQGTLVTVSSASTKGPSVFPLAPSSKSTSGGTAALGCLVKDYFPEPVTVSWNSGALTSGVHTFPAVLQSSGLYSLSSVVTVPSSSLGTQTYICNVNHKPSNTKVDKKVEPKSCDKTHTCPPCPAPELLGGPSVFLFPPKPKDTLMISRTPEVTCVVVDVSHEDPEVKFNWYVDGVEVHNAKTKPREEQYNSTYRVVSVLTVLHQDWLNGKEYKCKVSNKALPAPIEKTISKAKGQPREPQVYVYPPSRDELTKNQVSLTCLVKGFYPSDIAVEWESNGQPENNYKTTPPVLDSDGSFALVSKLTVDKSRWQQGNVFSCSVMHEALHNHYTQKSLSLSPG
heavy 2: not shown
light: GDIQMTQSPSSLSASVGDRVTITCRSSETLVHSSGNTYLEWYQQKPGKAPKLLIYRVSNRFSGVPSRFSGSGSGTDFTLTISSLQPEDFATYYCFQGSFNPLTFGQGTKVEIKRTVAAPSVFIFPPSDEQLKSGTASVVCLLNNFYPREAKVQWKVDNALQSGNSQESVTEQDSKDSTYSLSSTLTLSKADYEKHKVYACEVTHQGLSSPVTKSFNRGEC
**Q.** Does B6 bind (human NaPi2c)?
**A.** Result: no binding (tested: 200 nM)
